Assay: soluble on expression in E. coli; label from the status in PepcDB or PDB records

| Sequence | soluble on expression in E. coli |
| --- | --- |
| MADSDLPTKGRQRGVRAVELNVAARLENLALLRTLVGAIGTFEDLDFDAVADLRLAVDEVCTRLIRSALPDATLRLVVDPRKDEVVVEASAACDTHDVVAPGSFSWHVLTALADDVQTFHDGRQPDVAGSVFGITLTARRAASSR | not soluble |
| MGSDKIHHHHHHMLGTLKKLRAHLDEAQQVQYQLVVGEELLPLNPLIGQPLTLTHTGNIFCCNCGKKTKKSYSQGHCFVCMQKLASCDMCIMKPETCHFDQGTCREPEWAQSHCFVPHYVYLSNTSGIKVGITRHTQLPSRWIDQGATQGLPIFKVATRQISGLVEVELAKLINDKTHWQAMLKGHADDIDLQAKAAELIPHIEAKLHEIGMQKGNYSIERLQENIQTIHYPIEVFPKKITSHNFDKEAVVSGILQGIKGQYLLFDTGVINIRKFTAYEVSVTLTG | not soluble |
| MSLKINVAPENPQYRIVEIFESLQGEGWNTGMPAVFVRLGKCNLACGWCDTDYLTFGMMGLSDILGRLKTYAARNIIITGGEPTIQPHLDMLLDTLKAEGYFLCLETNGLNPAPPQIDYVATSPKACYAAKYENSCIETADEVRIVADGDVLAFCENMERKIRAHHYYLSPCEQDGAMNIYDTIRQIGILNSRPDASVHWQLSVQTHKWAGIEEGHHHHHH | soluble |
| MSLHITTKRLLIREFEFKDWQAVYEYTSDSNVMKYIPEGVFTEEDAKAFVNKNKGDNAEKFPVILRDEDCLIGHIVFYKYFGEHTYEIGWVFNPNYQNKGYASEAAQAILEYGFKEMNLHRIIATCQPENIPSYRVMKKIGMRREGFFKKCIPKGNEWWDEYYYAILEEEWNEGHHHHHH | soluble |
| MIDPREIAISSRLEKVRNVIPVVSGKGGVGKSLISTTLALLLREKGYKVGLLDLDFHGASDHVILGFEPKEFPEEDKGVVPPEVNGVKFMTIVYYTENKPTPLRGKEVSDALIELLTITRWDELDYLVIDMPPGLGDPFLDVLRFLKRGKFIVVATPSKLALNVVEKLIQLLKEENREILGIIENMKLDEEEDVKNLAKRHGINYLLGVPFYRDLEEKIGKVEELLKTPFADKLREVIKVLV | soluble |
| DIVLTQSPATLSVTPGNSVSLSCRASQSIGNNLHWYQQKSHESPRLLIKYASQSISGIPSRFSGSGSGTDFTLSINSVETEDFGMYFCQQSNSWPYTFGGGTKLEITGGGGSGGGGSGGGGSDIQLQESGPSLVKPSQTLSLTCSVTGDSITSDYWSWIRKFPGNRLEYMGYVSYSGSTYYNPSLKSRISITRDTSKNQYYLDLNSVTTEDTATYYCANWDGDYWGQGTLVTVSAAHHHHHH | soluble |
| RYDKPGDKIDDGTELKLKGEKLKYVSRGGLKLEKGLHVFGVSVANQIGIDIGASTGGFTDVMLQDGAKLVYAVDVGTNQLVWKLRQDPRVRSMEQYNFRYAQPEDFNEGQPVFASIDVSFISLSLILPALHNVLSDQGQVIALIKPQFEAGREQIGKKGIVKDKQIHEKVIQKVMDFASGYGFTVKGLDFSPIQGGHGN | not soluble |
| MKKLFALLFISMISGMIMAQIPEVSGTIVFKKDGQPVVGALVSVLGTDISTITDVDGRFTLKEIPEKAQRIRVKYIGMQPKDVKIRPIMNVTLDLEKKLAFFIQAGVGVSGYNLENNNEDIYGGNNHLYIQGGVGLNYNFSTYFSLQPSVNVVAKGCKNMGRRGSDGQGEITVDPVYLEIPVLIAARFIISDFGRLIFNAGPYAAIGIAGKGKYTDEWEGTSMKFDLFSGDEAVLKRFDAGVQAGFAYEIKHIGFSYTFGYGLLKPFKEWNKEWGATPHNISHNFGLKYIF | not soluble |
| MVAAAAATGILSLCGSPALADSHADGAATNSPGAVSGNALQVPVDVPVNACGNTVDVIAALNPAFGNECENASDEKTDGHGGGYGEDASSSSSSSTSASSSGSHADGATEGSPGVGSGNNAQVPVDVPVNLCGNTVDVIAALNPVFGNKCENDAEEPPGYGEEEPPPPTTPPGYGEEEPPPPTHEEPPPPSGEEEPPPPSEEEHTPPAPQTEQPPALAETGSEGTLGAAAAGAVLIAGGAILYRRGRALSGRLEHHHHHH | not soluble |
| MGSDKIHHHHHHMRTNVRLLAYRLLRKYEKEKFISREDVDSVLSFLDDRDRRFFKELVWGVVRKEELLDWYINQLLKKKDIPPAVRVALRMGAYQLLFMNSVPDYAAVSETVKLVKNENFKKLVNAVLRRLRTVPEPKELHLVYSHPEWIVNYWRSFLPEEAVLRIMKWNQEPLPVMLRVNSLAATKEEVIKILAEEGTEAVPGKHAPFSLIVRKLGVPMNDSRVINDGLASVQGESSQLVPFFMELRPGLRVLDTCAAPGGKTTAIAELMKDQGKILAVDISREKIQLVEKHAKRLKLSSIETKIADAERLTEYVQDTFDRVLVDAPCTSLGTARNHPEVLRRVNKEDFEKFSEIQLRMVQQAWQLLEKGGILLYSTCTVTKEENTEVVKRFVYEQKDVEVIDIRDKMKEFEVEGIWDGYGFLMLPDETITPFYISVLRKMG | not soluble |
| PSVYDAAAQLTADVKKDLRDSWKVWGSDKKGNGVALMTTLFADNQETIGYFKRLGDVSQGMANDKLRGHSITLMYALQNFIDQLDNPDDLVCVVEKFAVNHITRKISAAEFGKINGPIKKVLASKNFGDKYANAWAKLVAVVQAAL | soluble |
| ALEGTEFARSEGASALASVNPLKTTVEEALSRGWSVKSGTGTEDATKKEVPLGVAADANKLGTIALKPDPADGTADITLTFTMGGAGPKNKGKIITLTRTAADGLWKCTSDQDEQFIPKGCSR | soluble |
| MSLLKMYADKRGLKDIKSNMVMREFEEVFEKFKDWTEKIKQKYPNPDEILNLEKEEKWDFSDLFGEFLGDYRTVKSYHEFDKDNPYLPSDEFNKYFAAFSQIQEEIRKEKAEKKALEVQEEDLSNEVRKEPQIFSWEYGEGIQANLDYIFHLIKDLYNCDNEQDRQKVLDKIKTAIRTNPEIQVNEDILNEFIEDLGKSFEKEKLEEVWKTEGKLRECLKDFCKKKEESNKKKIINDFLVKGVFLVEWVADKQLNTAKKKGEYSPSWSDTEKLIWKEKSTNLPTMTEKDEDGNFKWRKLITDISEAFKNEGHHHHHH | soluble |
| EAMFCDFPKINHGILYDEEKYKPFSQVPTGEVFYYSCEYNFVSPSKSFWTRITCAEEGWSPTPKCLRLCFFPFVENGHSESSGQTHLEGDTVQIICNTGYRLQNNENNISCVERGWSTPPKCRSTISAEKCGPPPPIDNGDITSFLLSVYAPGSSVEYQCQNLYQLEGNNQITCRNGQWSEPPKCLDPCVISQEIMEKYNIKLKWTNQQKLYSRTGDIVEFVCKSGYHPTKSHSFRAMCQNGKLVYPSCEEK | not soluble |
| MELTMAKELIFIDWDDTLVNRENAEDFESVTDENNTIYQMSPMFIGAVEALKQLQEKYHVVIVSSRGDLNRLRQLQLQSYDLESSIMPLENFTFEDNDNRLLFTRYGETNFPDKASFILYIQKMSGNKIKVFIDDDHTEIEAAQSKGIPTIHATHNKYLQNTEQFFSGLIHQVDNMELSHIFNKVAAEIRNNSRSISWGRQIAGFFSVHLPIAQSLENLASKLQRKSANEVSEEFDQYLKKIAYDPNKKGDIAVSLTKAKTAIDKHISAPIEIKEDQPFLNRMI | not soluble |
| GRAGGRTLGEQWKEKLNAMGKEEFFSYRKEAILEVDRTEARRARREGNKVGGHPVSRGTAKLRWLVERRFVQPIGKVVDLGCGRGGWSYYAATMKNVQEVRGYTKGGPGHEEPMLMQSYGWNIVTMKSGVDVFYKPSEISDTLLCDIGESSPSAEIEEQRTLRILEMVSDWLSRGPKEFCIKILCPYMPKVIEKLESLQRRFGGGLVRVPLSRNSNHEMYWVSGASGNIVHAVNMTSQVLIGRMDKKIWKGPKYEEDVNLGSGTRAVGK | soluble |
| MSLLDIERVREQQRPLPISKIRAQQSHTSFQGVFEEIAGHKSEKTVYAILETLEKDGERLAKHRTAAELHAFKRSVRQCVSHLLESLKVETASSAASGQVRQYKLVKEIDKGLVELTNAVFDQSKSELDLLNKIGELQGLIIQLYLEGHHHHHH | soluble |
| MNEADMLFSVTVPGSTANLGPGFDSVGMALSRYLKLTVFESDKWSFEAETETVAGIPAGTDNLIYQVAKRTADLYGKEMPPVHVKVWSDIPLARGLGSSAAAIVAAIELADELCGLKLSEADKLHLASLEEGHPDNAGASLVGGLVIGLHEDDETQMIRVPNADIDVVVVIPFYEVLTRDARDVLPKEFPYADAVKASAVSNILIAAIMSKDWPLVGKIMKKDMFHQPYRAMLVPELSKVEHVAEMKGAYGTALSGAGPTILVMTEKGKGEELKEQLALHFPHCEVDALTVPKEGSIIERNPLYQVKSV | not soluble |
| MSLNNMIQVAIIGAGFIGPAHLEALRRLGDVEVVALCDSRLEAAQRKARALNIAHAYDSVEALLAHPGLQVVHNCTPNHLHAQINRQILAAGLHVFSEKPLCMTAGEARELVALAARAGVVHGVSFVYRQFAMVQQAAAMIRHGEVGRIFAAHGSYLQDWMLLETDYNWRVDSAQGGASRTVADIGSHWCDTVQFMTGRRIVEVMADLSIVWPTRKAPVNGKATFSAVHEAQAYETRPVDTEDFGSVLLRFDDGSKGSFMVSQVSAGRKNRLAVEINGSLCSLAWDQEVPQRLWIGHREQPDRLLSDDPSLLRPEIADSAHYPGGHIEGWPDAFKNMMGHFYQAVRAGKMPAAGARRFAAFDDGADVMYIIEAIVKSHQEQRWVSVEREGHHHHHH | soluble |
| MGSDKIHHHHHHMQQEQRILFKNDTGDYAAVAAGEESVLQAGLRQSVPLNYHCASGSCGSCKARLIQGALKVHTGTDFIQVSHTADQVCEYPEVHLCQSHAVSDCVFEALYDKNVPPDLVTPKHYAASLSDVRPLGSGLYRLLVDFDDSIRFLPGQYVMLATEAGGRARAYSVANFAQDSRQLEFILSCNPNGAMSPQLCDINNIGMQLQGYGPLGKAYIRPSKDKEIVMLVGGSGVSVALSTLEWAISSHYIDDRHLTIFWGVRDTSPIDLIGVLNRYAAVHSNLRVAVCSDISPSVQDRVRFPHIEFFTGYPADHIVNDASISWEGKEVYISGPPPMVDHTVRQLMINTEIDALDIKCDSFV | not soluble |
| MVELKVPMFPESVADGTLAQWNKNEGDFVNEGDILAEIETDKVVLEVPATSSGVLKGIKKHAGDTVLSEESLAIIDTAVSTSEPNQQTTNQGNASEATATGQEIDIKAPVFPESVADGTISEWHKKEGEAVSEGDILAEIETDKVVLEVPATSNGVLTKILKTAGETVLSAELIAKITAGGATATTKSEASVGVSQANNDPHLVPSARKAFNASGLDTAANIEGTGKKGRITSEDVKKAVASVNKPQQQTVVINQGARYEKRVKMTRLRQTIANRLVEVQHTNAILTTFNEVDMSAVMELRNKYKDMFVKEHDTKLGFMSFFIKAATEALKKFPDVNASIDGDEIVYHNYFDIGIAVGTDRGLVVPVLRDTDTKSLAELEADVLDKAIKGRDGKLSLEDMQGGTFTITNGGTYGSMLSTPIINSPQSAILGMHNIVERPVVVKGEIKIRPIMYLALSYDHRIIDGGTSVRFLKMIKELIEDPNRILLQV | not soluble |
| GNKIPTTMAFRTVTDVDNAVNGLYDLMSGSGYYGAAMFAYGDMKGDDMQSSEESGVCNTCYMFNHRPNSLNAGSLWGRPFYILREAWNILNAIAEGKIESGDEKKLNALKGETMAVIALCQFDLTRCFGYPYTKDKGASLGAPLIDHLVGTYENPPRSTVAQAYDFIIETLEEAVTLMSEEKNNGRMNKYAARALLARIYLYHDDNRKAFDLADQLIKDADTSGSYALYPHEKYVAAWSVEAKFGSESFFEIANSVDDTPGRDSWGYLLNWYGYQKGFVTQKYAEQMLADPGDVRGHLLEENKYAGKTVWWLYKLRGTDLKTAPLECNNVVLRLSEVYLIAAEAGCKLGGDAAVQGLGYLNEIVKRGNPDNEVTMADYTLDRVLDERSKELVGEGHRFFDLLRNGKTIVRKGGYHLPSVDEEVDWDFYKCVLPIPEDQFIFSPEMEQNPGYPKN | soluble |

— the DeepSol protein solubility set
